The series concerns Saccharomyces cerevisiae. Description: transcriptional activation domain activity (GFP:mCherry ratio, weighted mean of sorted bins, harmonized to initial dataset scale) (arbitrary fluorescence ratio units); higher = stronger transcriptional activation. Conditions: beta-estradiol 1 µM; induction time 4 h. As for the experimental part: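 53-aa protein tiles (fungal proteins plus yeast TF control tiles) fused C-terminally to a DBD-estrogen-binding domain-mCherry synthetic TF, integrated in S. cerevisiae (URA3 locus) with a GFP reporter. Cells were induced with 1 uM beta-estradiol for 4 h at 30 C, FACS-sorted into 8 bins by GFP:mCherry ratio and barcodes sequenced. Activity is the read-weighted mean bin fluorescence (GFP:mCherry), averaged over barcodes (median 12); tiles under 50 reads were discarded. New active-learning values were harmonized by linear fit onto the scale of the initial (Hummel et al.) dataset. The assay saturates at low and high signal.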
Take “KSPEKEATKDGDGKPEGTTGTGRGRGRGRGRGGGRGRGRGRGGAVAEKGSYKA”: the “transcriptional activation domain activity” value was less than 6570. The same measure for “MFGFSLFFLFCFSVIVGFILFTLFFDYSPLSISLSCSVYCIMLCLSLFFLVFF”: 34200.

Consider “FALMLREPAIQDVMSLLITTMSKFMDWFDFLDLIVTYPEFPDPKWLTTLFLIL”, for which the “transcriptional activation domain activity” value was 23900. The same measure for “KGGSEKSGNAGKKEDAGKKEAEKKKVEAGKNQGKGKQNTGSGGNKKAAKKGKK”: 18400; for “APSPTPDDDADMKKKDGDGKKDGEDGKKKMKMVTALKNCSFTVPAGTTAALVG”: 39400. As for “SIWSFSTLLSILARDHVFYFFIKQNVDTFYIWLLETTAIYYIFMLGPIMFLSI”, the figure is 60600; as for “VGLYSLCIVSGILFPLYICCWREDFLIQNFVHRSLFTLVFMLLFLLGLIFLEF”, 56900; as for “LNVLLGFLLLCFPNLERMVLNFGTVIAGPNHPGTLRKGYCEHCKLGVNVLEFD”, 62000.

Regarding “SFLIFLLCEYARHVLVTSITVPHYLEYADVWRGNGQMDFRLLIRMFSTDTRRK”, the “transcriptional activation domain activity” value came to 45000. The same measure for “KPHGKQAAESTRGQSTTGTNSTTSNSSRASGSRRQETDRGKEGKSNKASSSSG”: 21900; for “AESGGESAGNASGEDFAAPKKKSSRSRIKKALQSLGSGKLSPKNSRTPKASPV”: 28400. As for “GDADVDGNGHGTHCSGTIAGKKYGVSKKAKIYAVKVLRSNGSGTMADVVAGVE”, the figure is 59400.

With “ISMEKIGRRAFNKGMKNIDEGPETENDATENSLTTILNDLEGPLEDFSENFID”, the “transcriptional activation domain activity” value was 34300. As for “FRLAFMLICVDVFLALFHILDYVLYIPSRVCTFSAWGTLTCELMTIFLNVTIA”, the figure is 52500; as for “KTIFFCGGRFLTSRALWAFCLSMFLFVMPSVLFLIFTCPWLWHHISPAVPIIF”, 41300; as for “KKAKKGGDEAGAKGSGKPKKPAGEADGSVAAEGGAAKGKARKAASSEPKKGAK”, 27900. The same measure for “ARLLPDTIHLYILVVASLVNTLCVLFLDCCFLLLFFLFFYFFYPFLLFLFASF”: 41200; for “MHKCCLLDFLMLSTNYADVFYFHKLCIILTSFFSRLNPLLSIGLNLLLFCLLI”: 57000; for “MLHGSGAVFGSGFLSLVSLVLWLISYYCCTWTWKGIFILSICFFNTCIYIECI”: 49800. As for “AEAEKMDVDPAVSTAETEVKQESPAPAAATSVSTPEVKVTPSSAHPSLPAKPL”, the figure is 18400. Take “IDPHGYDANGLYEIGTIVSSIAVCVANFFVVFSLYSYTWIQALVISLSILVYY”: the “transcriptional activation domain activity” value was 45700. The same measure for “EAEDDEEDADAAGGKKPKAKKRKRESTVKESAEEKKGKRKRASEQLAKQRRGK”: 22600; for “NLYGNDEEVLFYEDNYNPKMQWSLQDNSAAINNEDARAIFNNEFDSDDDDISD”: 86600; for “MLHSISTYLIFPLLYLFILSFNIYHFFFFSLKIITILIFLHTFVLLLFSWRKY”: 60400. Regarding “GQLLVALAREAFTLVTWRTTLQGKLEVEIFPPSDLLLNRYMWYVLHLLDHTSL”, the “transcriptional activation domain activity” value came out at 13100. The same measure for “AVRAATSVLCKEMLRPGQSASLGLREAEEVECRMRALARLERVWVKTGASTNG”: 54900.

On to “SGDADEDGNGHGTHCSGTVAGKKYGVAKKAHVYAVKVLRSNGSGTMSDVVKGV”, for which the “transcriptional activation domain activity” value worked out at 42000. The same measure for “LLLFNDEYTHIWSTPSFALKWIYLFARYFPLLFQSTSYYLLTHILSRPPISWS”: 61800; for “MPGLCIWYGVFWVVGFFSFFLLVLRVMGFLVCVFVRLVCVCFFRAFDICFFFS”: 34500. In the case of “WLSHSQKKHCELCKTPFRFTKLYAPNMPKALPTHVFLSHVAKYILRNLLVWLR”, the “transcriptional activation domain activity” value amounted to 81200. As for “VIHLMNMGQVSILFIHRFIYGVVPLFEIVSCSFWPLLVSLWHLDYILIYLIMF”, the figure is 46300; as for “SDKLHRLRWRLGSLEDVLTTFSYLKFEQYLIPIVYLLLRRHTNIIFLAAHWVL”, 64000; as for “ESDEEAAVEAEAPKKKGRAKKVKPESEVDHEPAFEQPKKKGRAAKAKIQPAEE”, 15400. As for “MGSLLLFMGIDEGSFLCGFFFSIFFLLLAFFTSYGCFCDKFFFLLYLLLLLRK”, the “transcriptional activation domain activity” value stood at 44300. As for “MSFQPLFYLLGLGVLFPLLFLLLSPPLFPSMAPFFLLQILLLMLTTELFFVPL”, the figure is 39700. The same measure for “VNGGGESDEDVKSKKDSKRKGKAIKGEDEEEEEEKPKANSKRGRKKVEENGAV”: 44700; for “MYLAVHWFYISGCTHHIFMIFLFMSKFLCLLMLLLSSCVVLSSFRTIFVLSFS”: 62700; for “MILIVFSLLLSFPMFLERVLFFPLSFLFFFSPSFCLSYTQPSPLTMPFFSYFC”: 68300. As for “DNDYNLDDTNNDNTNSMQSILEDFVSSEEALKFMPDAGRDARRYSEVVTSSFP”, the figure is 89300; as for “EKGGRDKDKDGRPANAKPKSKPHGKTPKPQQQRDGKKSATLKENAAPAAPAAA”, 24800; as for “MIVFSPISFVGTLWVVSCCLFFKFPLPLPFPLPLPFFFFVSLFFLYLSRKIRA”, 28200.

“RQRKDNHKEVERRRRGNINEGINELGRIVPNGSGEKAKGAILSRAVQYIHHLK”: the “transcriptional activation domain activity” value amounted to 13600. As for “DPYDWSTYSNLIDEERIFVPEVQSSDHINDKFLTVANVTGEGSEGLIMQWLSC”, the figure is 133000. As for “KSVSRLHAKIEYDQEEDRFVLLVVGRNGAWVDGVWSASGTRACLGERSQIQIA”, the figure is 42000; as for “ICFSPPLISCGGFFPSDLLPFLFHSFSFYFLTCWLPVYFLPPLFVACFFICLP”, 60100; as for “YFLAKMLLVWIVLALQTCEVSFSFVDTEHAYRGGVLRFVETLVKWAMEQNMSH”, 45400. Consider “QTIPKNQFASRVWTYMDPEVSRHLIDHYLGSIDLSRLELAVLALKCLYSRHTT”, for which the “transcriptional activation domain activity” value was determined as 53900. The same measure for “VGETVVTFCYEDGIMVMAMVGSGFMGYYLYTLQVKHSFSGPGPWFLGMALICL”: 68700; for “RRDVTLMGGLCLHTIQGAYLAACAYFVVPFSLVVSLGFEALLLLFCFIFIFIF”: 50400; for “QSPPPAKKAKTAAGGRGKKVKPEPESGSEAEAKPEPVASKRGRVKKPAKAEQE”: 14800. As for “SFTRRLILWNVCALGIIIVLASRRLLRCILLRKKKFDDTMEFSMLSLIFDLCV”, the figure is 71800; as for “RVFTKIRRLLIRLKKHDIHAVCAALLTYIFWPTAFLRAYCLDSIYYDPASRDK”, 54100. As for “TLMVLCENSYTTISRFILLDSMLLFFTFTTMLCFARFHNLQSRSFSFQWWLWI”, the figure is 51800. For “LLYALMNFSRIFSSGHSFGRKIIMFFEFVYLLLNFLFGFVSLGHFYFAFHFLI”, the “transcriptional activation domain activity” value came to 37000. For “NIFMLVFWSLALIYWSMFVIIPSIFNYFSPYHYSRWKVVLVNVGTFVWNLATC”, the “transcriptional activation domain activity” value amounted to 61300.
